B1: NS1 (dsDNA)
DNA 1: ACCTTCCTCCGCAATACTCCCCCAGGT
DNA 2: ACCTGGGGGAGTATTGCGGAGGAAGGT
B2: DR-core (dsDNA)
DNA 1: TCGGAAGTTTACATACAC
DNA 2: GTGTATGTAAACTTCCGA
B3: Li (dsDNA)
DNA 1: TCCAGTGGGTCAGAAGTTTACATACACTAAGT
DNA 2: ACTTAGTGTATGTAAACTTCTGACCCACTGGA
B4: Lo (dsDNA)
DNA 1: CAGTTGAAGTCGGAAGTTTACATACACTTAAG
DNA 2: CTTAAGTGTATGTAAACTTCCGACTTCAACTG
B5: NS2 (dsDNA)
DNA 1: CGGTCTTTCCGTCTT
DNA 2: AAGACGGAAAGACCG

Key:
SB100X-H19Y [1] = biological target: T1, SB100X-H19Y (synthetic Sleeping Beauty transposon, K14R;H19Y;K33A;R115H;R214D;K215A;E216V;N217Q;M243H;T314N); experiment: MST; nonspecific; Full-length MST: 50 mM Tris pH 7.5, 5 mM MgCl2, 300 mM NaCl, 2% glycerol, 50 mM Arg-Glu, 1 mM TCEP, 0.1% Triton X-100, 0.1 mg/ml BSA, 30 nM Cy5-DNA, room temp; details: protein: recombinant, tags: Ni-NTA purified
SB100X transposase [2] = biological target: T2, SB100X transposase (synthetic Sleeping Beauty transposon, K14R;K33A;R115H;R214D;K215A;E216V;N217Q;M243H;T314N); experiment: MST; nonspecific, monophasic; Full-length MST: 50 mM Tris pH 7.5, 5 mM MgCl2, 300 mM NaCl, 2% glycerol, 50 mM Arg-Glu, 1 mM TCEP, 0.1% Triton X-100, 0.1 mg/ml BSA, 30 nM Cy5-DNA, room temp; details: protein: recombinant; tags: Ni-NTA purified; label: Cy5 (5' forward strand)
SB10 transposase [3] = biological target: T3, SB10 transposase (synthetic Sleeping Beauty transposon); experiment: as above; details: protein: recombinant; tags: Ni-NTA purified; label: Cy5 (5' forward strand)
SB10-H19Y [4] = biological target: T4, SB10-H19Y (synthetic Sleeping Beauty transposon, H19Y); experiment: MST; Full-length MST: 50 mM Tris pH 7.5, 5 mM MgCl2, 300 mM NaCl, 2% glycerol, 50 mM Arg-Glu, 1 mM TCEP, 0.1% Triton X-100, 0.1 mg/ml BSA, 30 nM Cy5-DNA, room temp; details: protein: recombinant; tags: Ni-NTA purified; label: 5' Cy5 on forward strand (MST)
SB100X-H19Y [5] = biological target: T1, SB100X-H19Y; experiment: as above; details: protein: recombinant; tags: Ni-NTA purified; label: 5' Cy5 on forward strand (MST)
SB100X transposase [6] = biological target: T2, SB100X transposase; experiment: fluorescence lifetime; Full-length MST: 50 mM Tris pH 7.5, 5 mM MgCl2, 300 mM NaCl, 2% glycerol, 50 mM Arg-Glu, 1 mM TCEP, 0.1% Triton X-100, 0.1 mg/ml BSA, 30 nM Cy5-DNA, room temp; details: protein: recombinant; tags: Ni-NTA purified; label: 5' Cy5 on forward strand (MST)
SB10-H19Y [7] = biological target: T4, SB10-H19Y; experiment: as above; details: protein: recombinant; tags: Ni-NTA purified; label: 5' Cy5 on forward strand (MST)
SB10 transposase [8] = biological target: T3, SB10 transposase; experiment: as above; details: protein: recombinant; tags: Ni-NTA purified; label: 5' Cy5 on forward strand (MST)
SB100X transposase [9] = biological target: T2, SB100X transposase; experiment: fluorescence anisotropy; Full-length MST: 50 mM Tris pH 7.5, 5 mM MgCl2, 300 mM NaCl, 2% glycerol, 50 mM Arg-Glu, 1 mM TCEP, 0.1% Triton X-100, 0.1 mg/ml BSA, 30 nM Cy5-DNA, room temp; details: protein: recombinant; tags: Ni-NTA purified; label: 5' Cy5 on forward strand (MST)
SB10-H19Y [10] = biological target: T4, SB10-H19Y; experiment: as above; details: protein: recombinant; tags: Ni-NTA purified; label: 5' Cy5 on forward strand (MST)
SB10 transposase [11] = biological target: T3, SB10 transposase; experiment: as above; details: protein: recombinant; tags: Ni-NTA purified; label: 5' Cy5 on forward strand (MST)
SB100X transposase [12] = biological target: T2, SB100X transposase; experiment: MST; specific (first) transition; Full-length MST: 50 mM Tris pH 7.5, 5 mM MgCl2, 300 mM NaCl, 2% glycerol, 50 mM Arg-Glu, 1 mM TCEP, 0.1% Triton X-100, 0.1 mg/ml BSA, 30 nM Cy5-DNA, room temp; details: protein: recombinant; tags: Ni-NTA purified; label: 5' Cy5 on forward strand (MST)
SB10 transposase [13] = biological target: T3, SB10 transposase; experiment: as above; details: protein: recombinant; tags: Ni-NTA purified; label: 5' Cy5 on forward strand (MST)
[14] = biological target: T5, H19Y (PAI K14R/H19Y/K33A) (synthetic Sleeping Beauty transposon, UniProt PDB:6URS_1, K14R;H19Y;K33A); experiment: NMR; HSQC, pH 5.2, 35 C, 1:4.5 protein:DNA; Full-length MST: 50 mM Tris pH 7.5, 5 mM MgCl2, 300 mM NaCl, 2% glycerol, 50 mM Arg-Glu, 1 mM TCEP, 0.1% Triton X-100, 0.1 mg/ml BSA, 30 nM Cy5-DNA, room temp; details: protein: recombinant; tags: Ni-NTA purified; label: 5' Cy5 on forward strand (MST)
SB100X-H19Y [15] = biological target: T1, SB100X-H19Y; experiment: fluorescence lifetime; Full-length MST: 50 mM Tris pH 7.5, 5 mM MgCl2, 300 mM NaCl, 2% glycerol, 50 mM Arg-Glu, 1 mM TCEP, 0.1% Triton X-100, 0.1 mg/ml BSA, 30 nM Cy5-DNA, room temp; details: protein: recombinant; tags: Ni-NTA purified; label: 5' Cy5 on forward strand (MST)
SB100X-H19Y [16] = biological target: T1, SB100X-H19Y; experiment: fluorescence anisotropy; Full-length MST: 50 mM Tris pH 7.5, 5 mM MgCl2, 300 mM NaCl, 2% glycerol, 50 mM Arg-Glu, 1 mM TCEP, 0.1% Triton X-100, 0.1 mg/ml BSA, 30 nM Cy5-DNA, room temp; details: protein: recombinant; tags: Ni-NTA purified; label: 5' Cy5 on forward strand (MST)
[17] = biological target: T5, H19Y (PAI K14R/H19Y/K33A); experiment: NMR; HSQC and PFG diffusion, pH 5.2, 35 C, 1:5; monomeric complex; Full-length MST: 50 mM Tris pH 7.5, 5 mM MgCl2, 300 mM NaCl, 2% glycerol, 50 mM Arg-Glu, 1 mM TCEP, 0.1% Triton X-100, 0.1 mg/ml BSA, 30 nM Cy5-DNA, room temp; details: protein: recombinant; tags: Ni-NTA purified; label: 5' Cy5 on forward strand (MST)
[18] = biological target: T5, H19Y (PAI K14R/H19Y/K33A); experiment: NMR; HSQC and PFG diffusion, pH 5.2, 35 C; monomeric complex; Full-length MST: 50 mM Tris pH 7.5, 5 mM MgCl2, 300 mM NaCl, 2% glycerol, 50 mM Arg-Glu, 1 mM TCEP, 0.1% Triton X-100, 0.1 mg/ml BSA, 30 nM Cy5-DNA, room temp; details: protein: recombinant; tags: Ni-NTA purified; label: 5' Cy5 on forward strand (MST)

Binder	Kd (SB100X-H19Y [1]; label: Cy5 (5' forward strand)) [µM]	Kd (SB100X transposase [2]) [nM]	Kd (SB10 transposase [3]) [nM]	Kd (SB10-H19Y [4]) [nM]	Kd (SB100X-H19Y [5]) [nM]	Kd (SB100X transposase [6]) [nM]	Kd (SB10-H19Y [7]) [nM]	Kd (SB10 transposase [8]) [nM]	Kd (SB100X transposase [9]) [nM]	Kd (SB10-H19Y [10]) [nM]	Kd (SB10 transposase [11]) [nM]	Kd (SB100X transposase [12]) [nM]	Kd (SB10 transposase [13]) [nM]	binding result [14]	Kd (SB100X-H19Y [15]) [nM]	Kd (SB100X-H19Y [16]) [nM]	binding result [17]	binding result [18]	Kd (SB100X-H19Y [1]) [µM]
B1	2.71 ± 0.21	560 ± 40	2600 ± 160																
B2				31.1 ± 2.3	31.2 ± 11.1	31.6 ± 3.4	45.4 ± 4.8	29.4 ± 2	35.1 ± 6.6	51.3 ± 8.3	37 ± 4	17.3 ± 1.1	25.3 ± 0.9	binds					
B3				10.2 ± 0.9	10.3 ± 0.8	25.9 ± 2.3	16 ± 0.7	17.2 ± 0.8	27.6 ± 4.9	18.2 ± 2.2	19.3 ± 2.8	23.6 ± 2.2	17.3 ± 1.2		16.2 ± 2.3	16 ± 3.2	binds		
B4				11.6 ± 1.8	29.7 ± 3.5	16 ± 2.6	13.2 ± 1.1	23 ± 2.2	13.7 ± 2.8	9.73 ± 2.5	23.9 ± 2.8	23 ± 1.9	16.6 ± 2.6		20.6 ± 0.8	17.3 ± 2.2		binds	
B5																			3.43 ± 0.24
